From doi:10.64898/2025.12.03.691989 (bioRxiv, 2025)

Columns and labels:
human UBA1 = target: T1, human UBA1 (human, UniProt P22314 1-1058); experiment: MST
T1 sequence (looked up): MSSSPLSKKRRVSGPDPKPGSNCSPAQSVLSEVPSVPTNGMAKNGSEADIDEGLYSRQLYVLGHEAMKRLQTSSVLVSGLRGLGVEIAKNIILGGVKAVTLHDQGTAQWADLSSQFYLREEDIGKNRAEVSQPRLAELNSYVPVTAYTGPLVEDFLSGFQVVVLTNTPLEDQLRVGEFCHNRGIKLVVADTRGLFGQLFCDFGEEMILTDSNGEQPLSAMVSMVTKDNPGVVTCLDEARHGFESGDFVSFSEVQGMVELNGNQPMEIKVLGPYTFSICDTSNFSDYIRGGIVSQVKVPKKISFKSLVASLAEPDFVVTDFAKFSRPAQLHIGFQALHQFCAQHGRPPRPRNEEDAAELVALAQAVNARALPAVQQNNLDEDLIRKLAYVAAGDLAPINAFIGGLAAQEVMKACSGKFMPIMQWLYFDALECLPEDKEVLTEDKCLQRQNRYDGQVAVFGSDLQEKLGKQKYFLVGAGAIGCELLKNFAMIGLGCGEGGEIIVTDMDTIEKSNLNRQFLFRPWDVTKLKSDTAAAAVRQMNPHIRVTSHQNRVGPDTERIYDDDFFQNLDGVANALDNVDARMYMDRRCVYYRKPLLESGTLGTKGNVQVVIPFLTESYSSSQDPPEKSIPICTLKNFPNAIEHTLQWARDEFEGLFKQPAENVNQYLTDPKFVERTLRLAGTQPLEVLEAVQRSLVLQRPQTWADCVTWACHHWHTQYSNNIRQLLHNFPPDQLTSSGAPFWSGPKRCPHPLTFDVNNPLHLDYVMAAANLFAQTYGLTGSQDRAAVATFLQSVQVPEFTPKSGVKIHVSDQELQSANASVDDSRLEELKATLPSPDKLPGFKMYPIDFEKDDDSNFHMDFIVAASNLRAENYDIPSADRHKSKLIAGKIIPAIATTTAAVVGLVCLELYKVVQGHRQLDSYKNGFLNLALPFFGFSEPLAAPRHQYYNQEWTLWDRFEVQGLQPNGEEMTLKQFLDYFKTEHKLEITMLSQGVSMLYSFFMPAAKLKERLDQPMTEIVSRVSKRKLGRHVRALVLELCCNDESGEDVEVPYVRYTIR

[1] = target: T2, human UBA6 (full-length, amino acid residues 1-1052) (human, UniProt A0AVT1 1-1052); experiment: MST
T2 sequence (looked up): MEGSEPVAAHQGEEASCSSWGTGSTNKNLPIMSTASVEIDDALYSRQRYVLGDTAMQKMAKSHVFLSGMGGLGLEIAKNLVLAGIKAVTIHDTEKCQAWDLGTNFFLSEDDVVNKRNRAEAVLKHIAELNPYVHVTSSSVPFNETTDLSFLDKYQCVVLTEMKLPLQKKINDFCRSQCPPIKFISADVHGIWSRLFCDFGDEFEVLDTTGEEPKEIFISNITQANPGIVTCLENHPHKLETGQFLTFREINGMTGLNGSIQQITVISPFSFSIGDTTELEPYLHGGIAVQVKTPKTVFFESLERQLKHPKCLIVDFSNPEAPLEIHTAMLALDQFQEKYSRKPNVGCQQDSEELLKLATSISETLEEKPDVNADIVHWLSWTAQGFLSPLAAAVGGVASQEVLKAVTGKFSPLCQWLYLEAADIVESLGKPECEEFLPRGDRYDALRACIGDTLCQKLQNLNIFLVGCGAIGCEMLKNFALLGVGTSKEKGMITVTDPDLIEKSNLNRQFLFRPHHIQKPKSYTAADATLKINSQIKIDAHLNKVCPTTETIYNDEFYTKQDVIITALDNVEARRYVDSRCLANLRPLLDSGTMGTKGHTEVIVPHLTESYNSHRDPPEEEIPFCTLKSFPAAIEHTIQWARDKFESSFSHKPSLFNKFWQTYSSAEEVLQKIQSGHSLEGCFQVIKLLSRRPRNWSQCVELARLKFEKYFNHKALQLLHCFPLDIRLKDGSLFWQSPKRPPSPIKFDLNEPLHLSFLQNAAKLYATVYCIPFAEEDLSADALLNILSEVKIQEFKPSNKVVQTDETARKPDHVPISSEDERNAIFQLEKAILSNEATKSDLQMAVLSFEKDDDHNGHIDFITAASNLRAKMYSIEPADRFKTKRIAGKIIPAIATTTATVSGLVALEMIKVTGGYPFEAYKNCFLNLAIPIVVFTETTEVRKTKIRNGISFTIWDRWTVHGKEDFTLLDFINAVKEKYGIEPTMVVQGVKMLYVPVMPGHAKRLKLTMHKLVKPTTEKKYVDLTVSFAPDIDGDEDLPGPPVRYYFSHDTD

B1: BIRC6 UBC domain (amino acid residues 4520-4857) (domain or fragment)
chain: not shown
Binder B1 has a Kd (human UBA1) of 13 µM and a Kd [1] of 23 µM.
